# Measured values as given in publication PMC6179994, “Structural insights on TRPV5 gating by endogenous modulators” (Nature Communications, 2018).
# Key:
# [1] = biological target: T1, rat calmodulin (CaM), calcium-activated (rat, UniProt P0DP29 1-149); experiment: cryo-EM structure; detergent solubilized TRPV5 (DMNG) incubated 1 h with 10 mM CaCl2 and rat CaM at 1:20 (TRPV5 tetramer:CaM), then SEC; map at 4.4 Å without applied symmetry; details: both partners purified
# T1 construct: calmodulin, rat; modelled from the N-lobe (residues 6-77) and C-lobe (residues 83-147) of PDB 1CLL; Expressed from the pET 28b vector; The patch clamp experiments used purified CaM from bovine testes bought from Sigma, not this recombinant protein; also called Ca^2+-CaM; source: E. coli Rosetta 2(DE3), purified (phenyl sepharose, AKTA purifier)
# [2] = biological target: the molecule itself; experiment: cryo-EM structure; lipid-bound TRPV5 in detergent (DMNG) with 200 µM diC8 PI(4,5)P2; C4 symmetry, 3.9 Å
binder,measurement,setting,value
"full-length rabbit TRPV5 (transient receptor potential vanilloid 5) (natural protein, UniProt Q9XSM3 1-730, looked up, TRPV5, rabbit, full length; tetrameric channel; Eluted from the beads with 1D4 peptide; no removal of the tag is described; source: Saccharomyces cerevisiae, detergent solubilized, purified (1D4 antibody Sepharose beads, SEC on Superose 6)) MGACPPKAKGPWAQLQKLLISWPVGEQDWEQYRDRVNMLQQERIRDSPLLQAAKENDLRLLKILLLNQSCDFQQRGAVGETALHVAALYDNLEAATLLMEAAPELAKEPALCEPFVGQTALHIAVMNQNLNLVRALLARGASVSARATGAAFRRSPHNLIYYGEHPLSFAACVGSEEIVRLLIEHGADIRAQDSLGNTVLHILILQPNKTFACQMYNLLLSYDEHSDHLQSLELVPNHQGLTPFKLAGVEGNTVMFQHLMQKRKHVQWTCGPLTSTLYDLTEIDSWGEELSFLELVVSSKKREARQILEQTPVKELVSFKWKKYGRPYFCVLASLYILYMICFTTCCIYRPLKLRDDNRTDPRDITILQQKLLQEAYVTHQDNIRLVGELVTVTGAVIILLLEIPDIFRVGASRYFGQTILGGPFHVIIITYASLVLLTMVMRLTNMNGEVVPLSFALVLGWCSVMYFARGFQMLGPFTIMIQKMIFGDLMRFCWLMAVVILGFASAFHITFQTEDPNNLGEFSDYPTALFSTFELFLTIIDGPANYSVDLPFMYCITYAAFAIIATLLMLNLFIAMMGDTHWRVAQERDELWRAQVVATTVMLERKMPRFLWPRSGICGYEYGLGDRWFLRVENHHDQNPLRVLRYVEAFKCSDKEDGQEQLSEKRPSTVESGMLSRASVAFQTPSLSRTTSQSSNSHRGWEILRRNTLGHLNLGLDLGEGDGEEVYHF",binding result,[1],binds
same,stoichiometry N,[2],4 subunits
